Reference: patent US20200158726A1 (NORDIC BIOSCIENCE A S, published 2020)
No end group written: not given here.

Experiments:
[1] = target: T1, selection peptide SFSGFLVAPM-COOH (human); assay: competitive peptide assay (preliminary assays); the peptide also blocked the Western blot bands
T1 construct: Synthetic peptide; also called calibrator peptide
T1 peptide: SFSGFLVAPM-OH

[2] = target: T2, truncated peptide SFSGFLVA; assay: competitive peptide assay against the biotinylated screening peptide
T2 construct: Synthetic peptide; the selection peptide without its two C-terminal residues PM
T2 peptide: SFSGFLVA

[3] = target: T3, deselection peptide DMDYLPRVPNQ; assay: as above
T3 construct: Synthetic peptide
T3 peptide: DMDYLPRVPNQ

collagen type X alpha 1 = target: T4, collagen type X alpha 1 (human, UniProt Q03692 19-680); assay: Western blot of U2-OS cell lysate, antibody at 1 ug/ml
T4 construct: Endogenous protein in U2-OS lysates, seen as bands of about 59 kDa (monomer), 76 kDa and 120 kDa (dimer); also called type X collagen; Col10
Procedure: Human osteosarcoma cell lines (U2-OS; collagen X producing cell line) were purchased from ATCC (USA) and cultivated in DMEM medium containing 10% FBS, 2 mM L-Glutamine, 100 units/ml penicillin and 100 ug/ml streptomycin. Cells were grown in T25 flasks in a 37° C. incubator at 5% CO2, changing the medium every two or three days. When the cells reached 90% confluency the cell lysates were prepared using RIPA lysis buffer with following procedure: the cell media was removed and the cells washed twice with PBS, followed by adding cold RIPA lysis buffer (25 mM Tris-HCl pH7, 6; 150 mM NaCl, 1% Sodium deoxycholate acid). An EDTA free cocktail tablet was added to the flask then RIPA buffer was distributed to cover the whole surface of flask and incubated on ice for 10 minutes. The cells were scraped and centrifuged at 10,000 RPM at 4° C. for 10 minutes and the supernatants stored at −20° C. until use.
Protein bands were blotted onto a nitrocellulose membrane using the Invitrogen i-Blot gel transfer system according to manufacturer's instruction. The membrane was blocked in blocking buffer (5% skimmed milk in Tris-buffered saline with Tween (TBST)) overnight at 4° C. The monoclonal antibody, NB509-11G8 and commercial collagen type X antibody X53 (for comparison purposes) were applied in a concentration of 1 μg/ml in TBST with 5% skim milk powder and shaken overnight at 4° C. […]

T4 sequence (Q03692 19-680): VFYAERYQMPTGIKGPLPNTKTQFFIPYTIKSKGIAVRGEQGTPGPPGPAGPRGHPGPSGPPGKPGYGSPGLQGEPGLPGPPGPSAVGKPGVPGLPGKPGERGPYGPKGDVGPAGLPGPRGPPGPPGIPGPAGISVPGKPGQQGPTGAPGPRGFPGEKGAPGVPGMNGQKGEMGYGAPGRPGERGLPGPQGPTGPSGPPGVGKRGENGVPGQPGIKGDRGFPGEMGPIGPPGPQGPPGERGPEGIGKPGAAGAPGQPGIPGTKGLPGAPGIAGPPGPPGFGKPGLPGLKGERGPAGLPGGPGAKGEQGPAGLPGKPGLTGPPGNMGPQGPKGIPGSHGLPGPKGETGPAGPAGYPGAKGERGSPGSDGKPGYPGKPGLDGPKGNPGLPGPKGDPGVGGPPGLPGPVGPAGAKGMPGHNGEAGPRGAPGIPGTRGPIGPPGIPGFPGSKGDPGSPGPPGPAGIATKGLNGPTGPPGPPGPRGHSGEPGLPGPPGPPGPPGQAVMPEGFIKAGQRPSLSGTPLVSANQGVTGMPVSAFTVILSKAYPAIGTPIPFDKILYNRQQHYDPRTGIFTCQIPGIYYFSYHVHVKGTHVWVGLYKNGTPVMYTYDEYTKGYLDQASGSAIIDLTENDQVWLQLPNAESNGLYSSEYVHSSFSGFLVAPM

binding result [1]: binds
binding result [2]: no binding
binding result [3]: no binding
binding result (collagen type X alpha 1): binds
B1: monoclonal antibody NB509-11G8 (antibody, mouse IgG1, kappa, V domains shown)
VH: EVQLQQSGAELVKPGASVKLSCTASGFNIKDTHMHWVKQRPEQGLEWIGRIDPANVNTKYDPRFQGRATITADTSSNTAYLQLSRLTSEDTAVYYCATSGSSPWGQGTTLTVSS
VL: DVVMTQTPLSLPVSLGDQASISCRSSQSLVHSNGYTYSNWYLQKPGQSPKLLIYRVSNRFSGVPDRFSGSGSGTDFTLKISRVEADDLGVYFCSQSTHVPWTFGGGTKLEIKR
notes: Mouse IgG1, kappa, from a hybridoma
